The values that follow come from the supplement of paper PMC7877785.

± gives the uncertainty stated by the source.

This data set in a line: self-splicing fitness, log relative to wild type (ln ratio); higher = more splicing; Tetrahymena group I intron in knt gene, E. coli kanamycin selection, DiMSum; sequences stand for … in CUCUCU…GGAGGGAAAAGUUAUCAGGCAUGCACCUGGUAGCUAGUCUUUAAACCAAUAGAUUGCAUCGGUUUAAAAGGCAAGACCGUCAAAUUGCGGGAAAGGGGUCAACAGCCGUUCAGUACCAAGUCUCAGGGGAAACUUUGAGAUGGCCUUGCAAAGGGUAUGGUAAUAAGCUGACGGACAUGGUCCUAACCACGCAGCCAAGUCCUAAGUCAACAGAUCUUCUGUUGAUAUGGAUGCAGUUCACAGACUAAAUGUCGGUCGGGGAAGAUGUAUUCUUCUCAUAAGAUAUAGUCGGACCUCUCCUUAAUGGGAGCUAGCGGAUGAAGUGAUGCAACACUGGAGCCGCUGGGAACUAAUUUGUAUGCGAAAGUAUAUUGAUUAGUUUUGGAGUACUCGUGGUCG
The gist of the method:
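Pooled colonies went to amplicon sequencing on an Illumina HiSeq 2500 after six replicate transformations. The plates were LB agar with 100 μg/mL carbenicillin, 50 μM IPTG and 0.2% rhamnose, with or without 25 μg/mL kanamycin, incubated overnight at 37°C or 30°C. The E. coli BL21(DE3) library had all eight P1ex-region intron nucleotides randomised, the intron placed in the knt kanamycin-resistance gene on pET-22b(+). DiMSum fitness is the error-weighted combination of replicate fold changes, kanamycin against none, normalised to wild type.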

For AGUUAGCAAUAUUACGCCUA, the “self-splicing fitness (ln)” value was -1.11 ± 0.16 (30 °C) and -0.149 ± 0.13 (37 °C).
For AGUUAGCAAUAUUACGCUCC, the “self-splicing fitness (ln)” value by setting is: (30 °C) -1.45 ± 0.45; (37 °C) -1.02 ± 0.33.
Turning to AGUUAGCAAUAUUACGCUUG, the “self-splicing fitness (ln)” value (37 °C) was -1.83 ± 0.23.
In the case of AGUUAGCAAUAUUACGGACA, the “self-splicing fitness (ln)” value is -0.912 ± 0.12 (30 °C) and 0.372 ± 0.13 (37 °C).
The matching figures for AGUUAGCAAUAUUACGGGGA: -1.84 ± 0.17 and -3.12 ± 0.19.
The matching figures for AGUUAGCAAUAUUACGGGUU: -1.38 ± 0.11 and -1.53 ± 0.15.
As to AGUUAGCAAUAUUACGGUCG, the “self-splicing fitness (ln)” value was -0.622 ± 0.094 (30 °C) and -0.715 ± 0.14 (37 °C).
The matching figures for AGUUAGCAAUAUUACGUAAC: -4.54 ± 0.46 and -2.21 ± 0.24.
Consider AGUUAGCAAUAUUACGUCAG, for which the “self-splicing fitness (ln)” value (30 °C) was -3.99 ± 0.29 and the “self-splicing fitness (ln)” value (37 °C) is -3.25 ± 0.19.
The matching figures for AGUUAGCAAUAUUACGUCGU: -2.35 ± 0.14 and -1.05 ± 0.14.
Regarding AGUUAGCAAUAUUACGUCUG, the “self-splicing fitness (ln)” value was -1.43 ± 0.074 (30 °C) and -1.72 ± 0.11 (37 °C).
On to AUAAAGCAAUAUUACGAACA, for which the “self-splicing fitness (ln)” value was 0.281 ± 0.085 (30 °C) and 0.425 ± 0.11 (37 °C).
For the sequence AUAAAGCAAUAUUACGAAUC, the “self-splicing fitness (ln)” value is, setting by setting: (30 °C) -4.22 ± 0.42; (37 °C) -1.31 ± 0.22.
For AUAAAGCAAUAUUACGAAUG, the “self-splicing fitness (ln)” value by setting is: (30 °C) -1.48 ± 0.1; (37 °C) -0.422 ± 0.12.
On to AUAAAGCAAUAUUACGCAUU, for which the “self-splicing fitness (ln)” value is, setting by setting: (30 °C) -1.82 ± 0.086; (37 °C) -0.523 ± 0.11.
As to AUAAAGCAAUAUUACGCCUA, the “self-splicing fitness (ln)” value by setting is: (30 °C) -0.422 ± 0.091; (37 °C) -0.286 ± 0.1.
For AUAAAGCAAUAUUACGCGUC, the “self-splicing fitness (ln)” value reads like this: (30 °C) -4.6 ± 0.46; (37 °C) -2.73 ± 0.29.
The matching figures for AUAAAGCAAUAUUACGCUGU: -0.921 ± 0.09 and -0.246 ± 0.1.
With AUAAAGCAAUAUUACGGAUG, the “self-splicing fitness (ln)” value (30 °C) was -1.69 ± 0.072 and the “self-splicing fitness (ln)” value (37 °C) was -0.844 ± 0.11.
Take AUAAAGCAAUAUUACGGGGU: the “self-splicing fitness (ln)” value was -2.63 ± 0.16 (30 °C) and -1.99 ± 0.14 (37 °C).
For AUAAAGCAAUAUUACGGUAA, the “self-splicing fitness (ln)” value is, setting by setting: (30 °C) -1.21 ± 0.077; (37 °C) -0.709 ± 0.09.
The matching figures for AUAAAGCAAUAUUACGGUAC: -1.89 ± 0.11 and -2.6 ± 0.17.
The matching figures for AUAAAGCAAUAUUACGGUCG: 0.114 ± 0.059 and -0.114 ± 0.083.
The matching figures for AUAAAGCAAUAUUACGUCCG: -0.335 ± 0.11 and 0.106 ± 0.13.
For AUAAAGCAAUAUUACGUCGA, the “self-splicing fitness (ln)” value was -0.992 ± 0.068 (30 °C) and 0.858 ± 0.086 (37 °C).
On to AUAAAGCAAUAUUACGUUGG, for which the “self-splicing fitness (ln)” value (30 °C) was -2.08 ± 0.11 and the “self-splicing fitness (ln)” value (37 °C) is -2.15 ± 0.15.
The matching figures for AUACAGCAAUAUUACGAAUG: -2.16 ± 0.14 and -2.7 ± 0.19.
For the sequence AUACAGCAAUAUUACGACUG, the “self-splicing fitness (ln)” value by setting is: (30 °C) -1.52 ± 0.077; (37 °C) -0.848 ± 0.097.
For the sequence AUACAGCAAUAUUACGAUGC, the “self-splicing fitness (ln)” value runs as follows: (30 °C) -1.75 ± 0.11; (37 °C) -1.17 ± 0.16.
The matching figures for AUACAGCAAUAUUACGCAAA: -2.45 ± 0.21 and -1.07 ± 0.18.
With AUACAGCAAUAUUACGCACC, the “self-splicing fitness (ln)” value is, setting by setting: (30 °C) -1.21 ± 0.086; (37 °C) -1.05 ± 0.1.
As to AUACAGCAAUAUUACGCCAA, the “self-splicing fitness (ln)” value (30 °C) is -2.6 ± 0.19 and the “self-splicing fitness (ln)” value (37 °C) is -1.22 ± 0.18.
In the case of AUACAGCAAUAUUACGCGUG, the “self-splicing fitness (ln)” value is -0.923 ± 0.063 (30 °C) and -0.481 ± 0.082 (37 °C).
The matching figures for AUACAGCAAUAUUACGCUCA: -0.776 ± 0.069 and 0.318 ± 0.086.
Take AUACAGCAAUAUUACGGACA: the “self-splicing fitness (ln)” value was -1.55 ± 0.13 (30 °C) and -0.413 ± 0.13 (37 °C).
Regarding AUACAGCAAUAUUACGGCGU, the “self-splicing fitness (ln)” value runs as follows: (30 °C) -0.145 ± 0.065; (37 °C) 0.665 ± 0.076.
The matching figures for AUACAGCAAUAUUACGGUCU: 0.331 ± 0.06 and -0.16 ± 0.064.
